Source: US12466852B2, “Method for extraction and purification of hirudin mutant and use thereof” (SUNGEN BIOSCIENCE CO., LTD., priority 2019, dated 2025)
Entries after “also recorded” stand apart in the source; their conditions may differ.

Experiments:
[1] = effects of drying process on the activity of hirudin mutant HV2-Lys47 in anticoagulant blood collection tubes; assay type: physicochemical; conditions: for Activity after drying / Activity loss: content 306ATU/tube
Method: Effects of drying process on the activity of hirudin mutant HV2-Lys47 in anticoagulant blood collection tubes were studied.
The hirudin prepared in Example 9 was dissolved in sterile pure water with a dissolution concentration of 3.4 g/100 ml pure water. 2 ml blood collection tubes were used, and each of them was sprayed with the solution of the prepared hirudin mutant HV2-Lys47 by needle spray, and then dried.
The common drying process in the art is high temperature drying: drying three times at 45° C., 50° C. and 70° C., three times for each temperature, and 60 seconds each time.
The drying method in the present application is: drying the sprayed blood collection tubes in a vacuum lyophilizer at a temperature of −50° C. and a vacuum degree of […].
The effects of high temperature drying and vacuum lyophilization methods on the activity of hirudin mutant HV2-Lys47 were as shown in Table 1 below.

thrombin = thrombin (Homo sapiens, UniProt P00734); test: anticoagulant activity by biochemical method determination (Chinese Pharmacopoeia 2005 edition, page 84)
Method: According to the analysis of anticoagulant activity by biochemical method determination, the anticoagulant activity of the prepared hirudin mutant HV2-Lys47 was calculated to be 17000 ATU/mg. For the specific determination of anticoagulant activity, reference may be made to the left column of page 84 of the Chinese Pharmacopoeia (2005 edition). Moreover, the purity of the hirudin mutant HV2-Lys47 calculated according to the proportion of color bands in gel electrophoresis had reached to 95%.

blood coagulation = test: effects of the amount of hirudin mutant HV2-Lys47 in the blood collection tube on blood coagulation; conditions: for Coagulation: blood collection volume 2
Method: Effects of the amount of the hirudin mutant HV2-Lys47, which was prepared and vacuum-lyophilized in Example 9, on blood coagulation were as shown in Table 2 below:
It can be seen from the above table that anticoagulant effect can be achieved when the amount of the hirudin mutant HV2-Lys47 added in the blood collection tube is 0.005 mg or more.

[2] = drying for 40 min at −50° C. and with a vacuum degree of −4 Mpa
[3] = drying three times at 45° C., 60 seconds each time
[4] = drying three times at 50° C., 60 seconds each time
[5] = drying three times at 70° C., 60 seconds each time

B1: hirudin mutant HV2-Lys47: hirudin mutant of SEQ ID NO.: 1; asparagine at position 47 of natural hirudin substituted by lysine; produced by Escherichia coli fermentation (protein)
chain: ITYTDCTESGQNLCLCEGSNVCGKGNKCILGSNGKGNQCVTGEGTPKPESHNNGDFEEIPEEYLQ
Molecule B1 has an Activity after drying [1, 2] of 304 ATU/tube, an Activity loss [1, 2] of 0.65% and an Activity after drying [1, 3] of 276 ATU/tube. For the same molecule, the Activity loss [1, 3] was 9.8%, the Activity after drying [1, 4] was 245 ATU/tube and the Activity loss [1, 4] was 19.9%. For the same molecule, the Activity after drying [1, 5] was 160 ATU/tube, the Activity loss [1, 5] was 47.7% and the “loss of hirudin activity” value ([1]; high-temperature drying process generally used in production of a blood collection tube) was “about 10%”. The “hirudin activity loss (in words)” value ([1]; vacuum lyophilization) was “no hirudin activity loss; also recorded: not lost”, the anticoagulant activity (thrombin; prepared in Example 1 (tube centrifuge, ethanol precipitation)) was 17000 ATU/mg and the anticoagulant activity (thrombin; prepared in Example 2 (disk centrifuge, 8% salt)) was 15800 ATU/mg. It also gave an anticoagulant activity (thrombin; prepared in Example 3 (ceramic membrane)) of 16800 ATU/mg, an anticoagulant activity (thrombin; prepared in Example 4 (hollow fiber membrane)) of 16000 ATU/mg and an anticoagulant activity (thrombin; prepared in Example 5 (methanol precipitation)) of 15800 ATU/mg. The anticoagulant activity (thrombin; prepared in Example 6 (acetone precipitation)) was 17000 ATU/mg, the anticoagulant activity (thrombin; prepared in Example 7 (ammonium sulfate precipitation)) was 15000 ATU/mg and the anticoagulant activity (thrombin; prepared in Example 8 (ceramic membrane, nanofiltration, sodium chloride precipitation)) was 14500 ATU/mg. For the same molecule, the anticoagulant activity (thrombin; prepared in Example 9 (isopropanol precipitation)) was 18000 ATU/mg, the “amount added in the blood collection tube at which anticoagulant effect can be achieved” value (blood coagulation; 2 ml blood collection) was ≥ 0.005 mg and the Coagulation (blood coagulation; amount 0.001) was “Quick coagulation”. For the same molecule, the Coagulation (blood coagulation; amount 0.005) was “No coagulation”, the Coagulation (blood coagulation; amount 0.008) was “No coagulation” and the Coagulation (blood coagulation; amount 0.02) was “No coagulation”. The Coagulation (blood coagulation; amount 0.08) was “No coagulation”, the Coagulation (blood coagulation; amount 0.16) was “No coagulation” and the Coagulation (blood coagulation; amount 0.5) was “No coagulation”. For the same molecule, the Coagulation (blood coagulation; amount 1) was “No coagulation”, the Coagulation (blood coagulation; amount 5) was “No coagulation” and the Coagulation (blood coagulation; amount 10) was “No coagulation”. The Coagulation (blood coagulation; amount 15) was “No coagulation” and the Coagulation (blood coagulation; amount 20) was “No coagulation”.
